Columns and labels:
Test in all cases: pull-down; 5 pmol P-Rex1 or P-Rex2 protein (2.5 pmol for P-Rex1 mutants) with 5 pmol GST or GST-Grk2 in 20 µl detergent-free buffer (50 mM Hepes pH 7.2, 150 mM NaCl), 1 h on ice; isolated on magnetic glutathione agarose; beads washed in buffer with 1% NP-40; western blot
Settings in all cases: both partners purified
His-P-Rex2 (wild type) = target: T1, His-P-Rex2 (wild type) (human, UniProt Q70Z35 1-1606)
T1 construct: P-Rex2, human, wild type, subcloned into pENTR3C and recombined with pDEST10; also called wild type His-P-Rex2; source: baculovirus-infected Sf9 cells, purified (Ni-NTA agarose, desalting); not shown: His6, N-terminal, kept

[1] = target: T2, EE-P-Rex1 (purified recombinant wild type) (human, UniProt Q8TCU6 1-1659)
T2 construct: P-Rex1, human, wild type recombinant protein; also called wild type EE-P-Rex1; source: baculovirus-infected Sf9 cells, purified using the EE tag

[2] = target: T3, GEF-dead His-P-Rex2 (P-Rex2^E30A,N212A) (human, UniProt Q70Z35 1-1606, E30A | N212A)
T3 construct: P-Rex2, human, with alanine mutations at Glu30 and Asn212 in the catalytic DH domain; also called GEF-dead P-Rex2; source: baculovirus-infected Sf9 cells, purified (Ni-NTA agarose, desalting); not shown: His6, N-terminal, kept

GEF-dead EE-P-Rex1 = target: T4, GEF-dead EE-P-Rex1 (human, UniProt Q8TCU6 1-1659, E56A | N238A)
T4 construct: P-Rex1, human, with point mutations E56A and N238A in the DH domain; also called GEF-dead P-Rex1; P-Rex1 E56A N238A; source: baculovirus-infected Sf9 cells, purified using the EE tag

Measured: binding result

T2 sequence (Q8TCU6 whole entry): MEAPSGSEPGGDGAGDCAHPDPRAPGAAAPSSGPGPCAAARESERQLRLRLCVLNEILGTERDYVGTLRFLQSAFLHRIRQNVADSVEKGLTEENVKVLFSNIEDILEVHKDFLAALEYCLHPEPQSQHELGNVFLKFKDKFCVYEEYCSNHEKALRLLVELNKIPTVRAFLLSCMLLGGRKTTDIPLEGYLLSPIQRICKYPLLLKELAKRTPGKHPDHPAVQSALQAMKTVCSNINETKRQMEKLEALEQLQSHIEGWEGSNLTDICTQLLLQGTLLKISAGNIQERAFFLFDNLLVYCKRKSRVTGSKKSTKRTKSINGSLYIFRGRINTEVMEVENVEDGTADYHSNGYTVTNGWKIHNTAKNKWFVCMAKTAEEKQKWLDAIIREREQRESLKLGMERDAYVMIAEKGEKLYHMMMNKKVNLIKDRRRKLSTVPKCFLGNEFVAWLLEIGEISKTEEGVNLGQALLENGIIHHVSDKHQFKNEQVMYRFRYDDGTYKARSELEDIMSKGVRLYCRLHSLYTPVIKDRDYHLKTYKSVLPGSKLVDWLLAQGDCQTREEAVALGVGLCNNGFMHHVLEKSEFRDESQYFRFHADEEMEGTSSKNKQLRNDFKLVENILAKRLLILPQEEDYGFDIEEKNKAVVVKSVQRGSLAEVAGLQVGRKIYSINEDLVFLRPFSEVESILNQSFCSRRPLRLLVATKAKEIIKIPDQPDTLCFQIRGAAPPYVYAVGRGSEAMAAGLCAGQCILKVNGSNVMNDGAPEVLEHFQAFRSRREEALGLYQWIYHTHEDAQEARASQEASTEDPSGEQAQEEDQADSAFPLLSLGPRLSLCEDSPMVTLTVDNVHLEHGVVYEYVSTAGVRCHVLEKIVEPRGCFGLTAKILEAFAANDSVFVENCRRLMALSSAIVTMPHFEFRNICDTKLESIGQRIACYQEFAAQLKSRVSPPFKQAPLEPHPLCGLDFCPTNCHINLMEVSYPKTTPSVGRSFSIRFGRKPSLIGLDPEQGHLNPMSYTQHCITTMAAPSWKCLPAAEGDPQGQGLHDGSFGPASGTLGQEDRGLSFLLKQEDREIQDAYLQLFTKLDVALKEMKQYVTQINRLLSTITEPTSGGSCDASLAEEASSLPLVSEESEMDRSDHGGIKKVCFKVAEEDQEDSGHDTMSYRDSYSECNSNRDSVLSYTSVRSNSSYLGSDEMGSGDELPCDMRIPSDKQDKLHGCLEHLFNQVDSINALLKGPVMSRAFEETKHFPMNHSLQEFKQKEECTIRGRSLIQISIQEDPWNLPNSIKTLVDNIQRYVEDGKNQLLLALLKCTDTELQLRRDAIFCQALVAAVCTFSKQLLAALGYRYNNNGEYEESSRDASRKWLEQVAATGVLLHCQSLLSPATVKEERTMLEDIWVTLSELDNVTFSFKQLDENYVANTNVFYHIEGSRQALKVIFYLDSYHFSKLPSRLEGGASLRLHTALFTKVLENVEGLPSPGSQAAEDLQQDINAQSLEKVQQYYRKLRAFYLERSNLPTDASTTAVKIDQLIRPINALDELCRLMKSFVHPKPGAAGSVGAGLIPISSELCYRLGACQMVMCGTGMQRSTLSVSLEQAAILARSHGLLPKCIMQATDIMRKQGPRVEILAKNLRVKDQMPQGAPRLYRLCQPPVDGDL
T4 sequence (Q8TCU6 whole entry E56A/N238A, the tested form may be a part): as the sequence (Q8TCU6 whole entry) above, with E56A, N238A counted along it
T1 sequence (Q70Z35 whole entry): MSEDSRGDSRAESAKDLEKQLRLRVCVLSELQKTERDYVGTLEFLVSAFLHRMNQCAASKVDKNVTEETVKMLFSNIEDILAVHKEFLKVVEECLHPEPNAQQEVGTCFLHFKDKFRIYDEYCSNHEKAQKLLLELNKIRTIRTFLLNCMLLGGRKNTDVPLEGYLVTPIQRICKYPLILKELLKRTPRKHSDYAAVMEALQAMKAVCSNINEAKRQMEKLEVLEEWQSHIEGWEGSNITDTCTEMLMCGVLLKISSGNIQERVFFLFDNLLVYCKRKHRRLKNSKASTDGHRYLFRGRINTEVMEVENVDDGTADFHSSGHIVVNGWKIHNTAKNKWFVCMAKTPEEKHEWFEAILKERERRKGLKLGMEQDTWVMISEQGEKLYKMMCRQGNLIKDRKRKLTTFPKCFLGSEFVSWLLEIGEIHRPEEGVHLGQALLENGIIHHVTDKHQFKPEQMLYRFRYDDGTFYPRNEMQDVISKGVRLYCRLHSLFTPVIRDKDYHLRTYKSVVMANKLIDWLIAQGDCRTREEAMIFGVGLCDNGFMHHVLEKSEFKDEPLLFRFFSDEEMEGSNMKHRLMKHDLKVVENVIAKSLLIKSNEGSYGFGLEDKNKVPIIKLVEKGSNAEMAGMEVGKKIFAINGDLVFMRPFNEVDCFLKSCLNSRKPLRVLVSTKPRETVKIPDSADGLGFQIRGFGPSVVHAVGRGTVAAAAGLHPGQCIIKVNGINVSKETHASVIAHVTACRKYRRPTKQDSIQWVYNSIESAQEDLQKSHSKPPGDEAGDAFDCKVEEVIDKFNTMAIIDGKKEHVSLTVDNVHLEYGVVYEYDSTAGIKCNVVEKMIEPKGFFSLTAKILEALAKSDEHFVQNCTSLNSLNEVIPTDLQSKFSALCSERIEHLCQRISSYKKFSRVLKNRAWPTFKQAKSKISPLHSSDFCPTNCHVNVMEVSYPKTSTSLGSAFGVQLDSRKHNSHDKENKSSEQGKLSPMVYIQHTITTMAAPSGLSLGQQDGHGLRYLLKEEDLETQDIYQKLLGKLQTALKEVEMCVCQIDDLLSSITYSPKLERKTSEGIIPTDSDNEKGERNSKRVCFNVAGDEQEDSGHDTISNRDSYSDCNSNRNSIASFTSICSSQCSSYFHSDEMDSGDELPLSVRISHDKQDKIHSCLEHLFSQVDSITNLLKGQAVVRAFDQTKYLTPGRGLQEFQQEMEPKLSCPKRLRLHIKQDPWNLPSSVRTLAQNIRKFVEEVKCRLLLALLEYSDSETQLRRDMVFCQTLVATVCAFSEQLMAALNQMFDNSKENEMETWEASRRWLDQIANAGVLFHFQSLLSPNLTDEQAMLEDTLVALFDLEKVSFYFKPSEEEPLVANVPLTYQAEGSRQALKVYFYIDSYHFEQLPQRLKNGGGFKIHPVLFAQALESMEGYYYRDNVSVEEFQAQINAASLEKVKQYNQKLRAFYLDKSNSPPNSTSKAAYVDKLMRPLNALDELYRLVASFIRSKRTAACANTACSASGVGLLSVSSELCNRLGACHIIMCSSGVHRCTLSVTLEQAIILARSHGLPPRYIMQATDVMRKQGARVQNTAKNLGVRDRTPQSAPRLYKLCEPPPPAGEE
T3 sequence (Q70Z35 whole entry E30A/N212A, the tested form may be a part): as the sequence (Q70Z35 whole entry) above, with E30A, N212A counted along it

B1: GST-Grk2 (enzyme, human, UniProt P25098 1-689, looked up)
chain: MADLEAVLADVSYLMAMEKSKATPAARASKKILLPEPSIRSVMQKYLEDRGEVTFEKIFSQKLGYLLFRDFCLNHLEEARPLVEFYEEIKKYEKLETEEERVARSREIFDSYIMKELLACSHPFSKSATEHVQGHLGKKQVPPDLFQPYIEEICQNLRGDVFQKFIESDKFTRFCQWKNVELNIHLTMNDFSVHRIIGRGGFGEVYGCRKADTGKMYAMKCLDKKRIKMKQGETLALNERIMLSLVSTGDCPFIVCMSYAFHTPDKLSFILDLMNGGDLHYHLSQHGVFSEADMRFYAAEIILGLEHMHNRFVVYRDLKPANILLDEHGHVRISDLGLACDFSKKKPHASVGTHGYMAPEVLQKGVAYDSSADWFSLGCMLFKLLRGHSPFRQHKTKDKHEIDRMTLTMAVELPDSFSPELRSLLEGLLQRDVNRRLGCLGRGAQEVKESPFFRSLDWQMVFLQKYPPPLIPPRGEVNAADAFDIGSFDEEDTKGIKLLDSDQELYRNFPLTISERWQQEVAETVFDTINAETDRLEARKKAKNKQLGHEEDYALGKDCIMHGYMSKMGNPFLTQWQRRYFYLFPNRLEWRGEGEAPQSLLTMEEIQSVEETQIKERKCLLLKIRGGKQFILQCDSDPELVQWKKELRDAYREAQQLVQRVPKMKNKPRSPVVELSKVPLVQRGSANGL
notes: G protein-coupled receptor kinase 2 (Grk2), human, recombinant; also called recombinant human GST-Grk2; source: bought: Abcam (ab125620), Sf9 cell-derived recombinant
binds: His-P-Rex2 (wild type) | [1] | [2] | GEF-dead EE-P-Rex1

— doi:10.1101/2025.04.14.648762, “P-Rex1 Limits the Agonist-Induced Internalisation of GPCRs Independently of its Rac-GEF Activity” (bioRxiv, 2025)
